The source of these data is PMC12080732 (mAbs, 2025).

For this assay, the target named is active trimeric human TNFα (human, UniProt P01375 77-233). The assay is described as follows: SPR. For orientation: In SPR one partner is held on a chip, and binding of the other changes the refractive index at the surface.

Changes are numbered by the printed parent chain.

By Kd is commonly meant the concentration at which binding is half-saturated. One may read the koff as a measure of how fast the partners let go of each other.

active trimeric human TNFα, sequence (P01375 77-233): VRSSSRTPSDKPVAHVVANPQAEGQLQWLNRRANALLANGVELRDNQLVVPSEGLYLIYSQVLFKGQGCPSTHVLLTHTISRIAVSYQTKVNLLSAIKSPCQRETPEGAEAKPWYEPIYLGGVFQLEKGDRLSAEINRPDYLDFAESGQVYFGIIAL

B1: TNFI-Nb2 (VHH)
VHH: QVQLVESGGGLVQPGGSLRLSCAASGFAFNDHWMYWVRQAPGKELEWVSEINTNGLITKYADFVKGRFTVSRDNAKNTLYLQMNSLEPEDTAVYSCSRNQIGTLRGQGTQVTVSS
The molecule B1 came in with a dissociation constant (Kd) of 0.077 nM and an off-rate constant (koff) of 2.87e-05 s⁻¹.

B2: TNFI-Nb1 (VHH)
VHH: B1 VHH with Q1E, N84D, E87R
Turning to B2, the dissociation constant (Kd) was 0.219 nM.

B3: TNFI-Nb3 (VHH)
VHH: B1 VHH with K76E
For B3, the equilibrium dissociation constant (Kd) worked out at 0.392 nM.
